The record followed here is patent publication US20220112258A1 (I MAB BIOPHARMA US, published 2022).

As a reminder, the EC50 is the concentration that produces a half-maximal response. Usually Kd stands for a measure of binding affinity in units of concentration. A word on the koff: it is the first-order rate constant of dissociation. The kon is the second-order rate constant of association.

In test [1] the target is T1, recombinant human his-tagged PD-L1 protein (human, UniProt Q9NZQ7 19-238).
T1 construct: also called hPDL1-his; his-tagged human PD-L1; not shown: his tag
Nature of the test: ELISA, his-tagged PDL1 coated, OD450. The source says: Briefly, for ELISA-based binding, his-tagged PDL1 was used as coating protein.
(An ELISA detects its analyte on a solid surface through an enzyme-linked reagent.)

For test [2], the target named is T1, recombinant human his-tagged PD-L1 …. Kind of test: SPR (Biacore T200), ligand captured on protein A chip, hPDL1-his as analyte. How it is done: A series of dilutions of human PD-L1 protein were injected over captured antibody at a flow rate of 10 μL/min. […] All the experiments were carried out on a Biacore T200. Data analysis was carried out using Biacore T200 evaluation software.
(Surface plasmon resonance follows binding to a sensor surface in real time, without labels.)

Test [3] concerns the target T2, IL7R of human primary CD4+ T cells (human, UniProt P16871 21-459).
T2 construct: whole, on cells; also called IL-7 receptor; IL7Rα (CD127) on CD4+ T cells
T2 sequence (looked up): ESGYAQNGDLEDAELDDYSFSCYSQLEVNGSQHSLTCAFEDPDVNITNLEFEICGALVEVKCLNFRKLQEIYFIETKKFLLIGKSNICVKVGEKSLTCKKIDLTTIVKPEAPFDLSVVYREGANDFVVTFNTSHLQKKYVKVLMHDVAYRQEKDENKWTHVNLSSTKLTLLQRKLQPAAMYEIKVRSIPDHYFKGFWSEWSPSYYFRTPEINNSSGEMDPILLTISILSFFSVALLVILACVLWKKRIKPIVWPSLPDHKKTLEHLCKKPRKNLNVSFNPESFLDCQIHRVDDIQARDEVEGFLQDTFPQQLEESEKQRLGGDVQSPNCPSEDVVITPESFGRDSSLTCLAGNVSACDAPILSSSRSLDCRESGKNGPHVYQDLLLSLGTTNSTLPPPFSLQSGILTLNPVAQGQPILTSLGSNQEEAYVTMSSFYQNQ
Nature of the test: flow cytometry on human primary CD4+ T cells, 4 °C 30 min, PE anti-human Fc. How it is done:
Briefly, for IL7R binding assay, human primary CD4⁺ T cells were incubated with various anti-PDL1-IL7 fusion molecules at 4° C. for 30 mins. […] For ligation-mediated receptor internalization assay, human primary CD4⁺ T cells were cocultured with fusion molecules at 37° C. for 15 mins to induce internalization. PE-cy7-conjugated-anti-CD127 (IL7Rα) antibody was used to detect the surface IL7Rα by FACS.

Test [4] has as its target T3, PD-L1 expressed on cells (Raji-PD-L1; tumor cell lines RKO, HCC1954, HCC827) (human, UniProt Q9NZQ7 19-290).
T3 construct: whole, on cells; also called cell-surface expressed PD-L1; cell surface PD-L1
Kind of test: flow cytometry on HCC827 lung cancer cells, MFI. (A flow cytometer gives signals particle by particle.)

Test [5] deals with T3, PD-L1 expressed on cells (Raji-PD-L1; …). Nature of the test: flow cytometry on RKO colon carcinoma cells, MFI.
For test [6] the target is unchanged. Kind of test: flow cytometry on HCC1954 breast cancer cells, MFI.
The target is the same in test [7]. Nature of the test: flow cytometry on Raji-PD-L1 cells, PE anti-human IgG Fc, MFI. The protocol:
After washing by FACS staining buffer, the PE-conjugated anti-human IgG Fc specific antibody was added to each well and incubated on ice for 30 mins. The MFI of PE were evaluated by FACS Celesta.

T1 sequence (Q9NZQ7 19-238 limits assumed): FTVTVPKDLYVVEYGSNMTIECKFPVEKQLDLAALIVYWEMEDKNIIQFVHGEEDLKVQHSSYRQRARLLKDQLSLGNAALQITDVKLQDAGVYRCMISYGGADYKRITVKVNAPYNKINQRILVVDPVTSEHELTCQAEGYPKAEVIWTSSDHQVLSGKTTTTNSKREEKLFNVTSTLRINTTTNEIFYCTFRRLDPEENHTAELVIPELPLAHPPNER
T3 sequence (Q9NZQ7 19-290): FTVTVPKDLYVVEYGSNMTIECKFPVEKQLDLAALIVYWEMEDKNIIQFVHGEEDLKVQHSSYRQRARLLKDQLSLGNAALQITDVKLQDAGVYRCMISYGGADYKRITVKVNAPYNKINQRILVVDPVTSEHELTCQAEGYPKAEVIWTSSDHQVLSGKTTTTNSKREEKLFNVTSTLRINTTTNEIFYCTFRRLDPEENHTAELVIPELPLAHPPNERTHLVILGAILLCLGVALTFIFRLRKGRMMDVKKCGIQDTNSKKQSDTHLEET

B1: α-PDL1(anti-PD-L1 v3) monoclonal antibody (antibody, V domains shown)
VH: EVQLVESGGGLVQPGGSLRLSCAASGFTFSSYDMSWVRQAPGKSLEWVATISDAGGYIYYSDSVKGRFTISRDNAKNSLYLQMNSLRDEDTAVYICAREFGKRYALDYWGQGTTVTVSS
VL: DIQMTQSPSSLSASVGDRVTITCKASQDVTPAVAWYQQKPGKAPKLLIYSTSSRYTGVPSRFSGSGSGTDFTFTISSLQPEDIATYYCQQHYTTPLTFGQGTKLEIK
notes: also called parental anti-PD-L1 antibody (v3)
In the case of B1, the EC50 in test [1] was 0.11 nM. Moreover, in test [2], the Kd was determined as 2.03 nM, the koff came out at 0.000164 s⁻¹ and the kon came to 80700 M⁻¹ s⁻¹. Further, in test [3], the binding result is reported as “no binding (tested: 100 nM)”.

B2: α-PDL1(anti-PD-L1 v4) monoclonal antibody (antibody, V domains shown)
VH: QVQLLESGGGLVQPGGSLRLSCAASGFTFSSYWMSWVRQAPGKGLEWVANIKQDGSEKYYVDSVKGRFTISRDNAKNSLYLQMNSLRAEDTAVYYCARVALWDDAFDIWGQGTMVTVSS
VL: DIQMTQSPSTLSASVGDRVIITCRASRGISSWLAWYQQKPGKAPNLLISKASSLESGVPSRFSGSGSGTDFTLTISSLQPEDFATYYCQQSSSIPLTFGGGTKVEIK
notes: also called parental anti-PD-L1 (V4) antibody
For B2, the EC50 came to 0.46 nM in test [1]; 0.17 nM in test [4]; 0.19 nM in test [5]; 0.28 nM in test [6]; 0.11 nM in test [7]. Further, the Kd in test [2] worked out at 0.948 nM. In addition, in test [2], the koff was 0.000795 s⁻¹. Besides, the kon in test [2] amounted to 838000 M⁻¹ s⁻¹.
